Reference: patent US12679878B2, “CRF2 receptor agonists and their use in therapy” (SANOFI, priority 2020, dated 2026)
Starred links: 1 amine or outer side, 2 acyl side, 3 side chain; linkers in the order of their positions; H or OH if unused. Non-standard residues stand in square brackets, D forms with d. Groups on a side chain read outwards from the residue. No end group written: not given here. *: point of attachment. C18 diacid = O=C(O)CCCCCCCCCCCCCCCCC(=O)*; γGlu = O=C(O)[C@H](CCC(=O)[*:2])N[*:1]; AEEA = NCCOCCOCC(=O)O; Aib = CC(C)(N)C(=O)O

T1: anti-target CRF1R receptor (UniProt P34998 24-415, limits assumed)
T1 sequence (looked up): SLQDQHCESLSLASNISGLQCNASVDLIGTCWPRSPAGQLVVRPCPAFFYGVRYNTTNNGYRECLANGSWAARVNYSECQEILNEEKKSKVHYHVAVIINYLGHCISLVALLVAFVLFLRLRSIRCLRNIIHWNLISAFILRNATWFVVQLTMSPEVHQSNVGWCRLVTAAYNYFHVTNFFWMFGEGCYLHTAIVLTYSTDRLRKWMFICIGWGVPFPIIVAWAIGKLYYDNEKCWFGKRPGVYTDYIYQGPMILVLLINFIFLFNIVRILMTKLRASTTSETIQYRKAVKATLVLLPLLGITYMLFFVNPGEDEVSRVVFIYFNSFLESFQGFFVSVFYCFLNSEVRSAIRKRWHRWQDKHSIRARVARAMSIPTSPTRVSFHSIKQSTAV

B1: peptide of SEQ ID NO: 166 (peptide)
peptide: Ac-IVLSLD[dV]PIKLK([AEEA-AEEA-γGlu-C18 diacid])QILLEQERQK[Aib]QREQAEKNEQILEQV-NH2
SMILES: CC[C@H](C)[C@H](NC(C)=O)C(=O)N[C@H](C(=O)N[C@@H](CC(C)C)C(=O)N[C@@H](CO)C(=O)N[C@@H](CC(C)C)C(=O)N[C@@H](CC(=O)O)C(=O)N[C@@H](C(=O)N1CCC[C@H]1C(=O)N[C@H](C(=O)N[C@@H](CCCCN)C(=O)N[C@@H](CC(C)C)C(=O)N[C@@H](CCCCNC(=O)COCCOCCNC(=O)COCCOCCNC(=O)CC[C@H](NC(=O)CCCCCCCCCCCCCCCCC(=O)O)C(=O)O)C(=O)N[C@@H](CCC(N)=O)C(=O)N[C@H](C(=O)N[C@@H](CC(C)C)C(=O)N[C@@H](CC(C)C)C(=O)N[C@@H](CCC(=O)O)C(=O)N[C@@H](CCC(N)=O)C(=O)N[C@@H](CCC(=O)O)C(=O)N[C@@H](CCCNC(=N)N)C(=O)N[C@@H](CCC(N)=O)C(=O)N[C@@H](CCCCN)C(=O)NC(C)(C)C(=O)N[C@@H](CCC(N)=O)C(=O)N[C@@H](CCCNC(=N)N)C(=O)N[C@@H](CCC(=O)O)C(=O)N[C@@H](CCC(N)=O)C(=O)N[C@@H](C)C(=O)N[C@@H](CCC(=O)O)C(=O)N[C@@H](CCCCN)C(=O)N[C@@H](CC(N)=O)C(=O)N[C@@H](CCC(=O)O)C(=O)N[C@@H](CCC(N)=O)C(=O)N[C@H](C(=O)N[C@@H](CC(C)C)C(=O)N[C@@H](CCC(=O)O)C(=O)N[C@@H](CCC(N)=O)C(=O)N[C@H](C(N)=O)C(C)C)[C@@H](C)CC)[C@@H](C)CC)[C@@H](C)CC)C(C)C)C(C)C
B2: peptide of SEQ ID NO: 165 (peptide)
peptide: Ac-IVLSLD[dV]PIKLK([AEEA-AEEA-γGlu-C18 diacid])QILLEQARQK[Aib]QREQAEKNEQILEQV-NH2
SMILES: CC[C@H](C)[C@H](NC(C)=O)C(=O)N[C@H](C(=O)N[C@@H](CC(C)C)C(=O)N[C@@H](CO)C(=O)N[C@@H](CC(C)C)C(=O)N[C@@H](CC(=O)O)C(=O)N[C@@H](C(=O)N1CCC[C@H]1C(=O)N[C@H](C(=O)N[C@@H](CCCCN)C(=O)N[C@@H](CC(C)C)C(=O)N[C@@H](CCCCNC(=O)COCCOCCNC(=O)COCCOCCNC(=O)CC[C@H](NC(=O)CCCCCCCCCCCCCCCCC(=O)O)C(=O)O)C(=O)N[C@@H](CCC(N)=O)C(=O)N[C@H](C(=O)N[C@@H](CC(C)C)C(=O)N[C@@H](CC(C)C)C(=O)N[C@@H](CCC(=O)O)C(=O)N[C@@H](CCC(N)=O)C(=O)N[C@@H](C)C(=O)N[C@@H](CCCNC(=N)N)C(=O)N[C@@H](CCC(N)=O)C(=O)N[C@@H](CCCCN)C(=O)NC(C)(C)C(=O)N[C@@H](CCC(N)=O)C(=O)N[C@@H](CCCNC(=N)N)C(=O)N[C@@H](CCC(=O)O)C(=O)N[C@@H](CCC(N)=O)C(=O)N[C@@H](C)C(=O)N[C@@H](CCC(=O)O)C(=O)N[C@@H](CCCCN)C(=O)N[C@@H](CC(N)=O)C(=O)N[C@@H](CCC(=O)O)C(=O)N[C@@H](CCC(N)=O)C(=O)N[C@H](C(=O)N[C@@H](CC(C)C)C(=O)N[C@@H](CCC(=O)O)C(=O)N[C@@H](CCC(N)=O)C(=O)N[C@H](C(N)=O)C(C)C)[C@@H](C)CC)[C@@H](C)CC)[C@@H](C)CC)C(C)C)C(C)C
B3: peptide of SEQ ID NO: 167 (peptide)
peptide: Ac-IVLSLD[dV]PIGLK([AEEA-AEEA-γGlu-C18 diacid])QILLEQERQK[Aib]QREQAEKNEQILEQV-NH2
SMILES: CC[C@H](C)[C@H](NC(C)=O)C(=O)N[C@H](C(=O)N[C@@H](CC(C)C)C(=O)N[C@@H](CO)C(=O)N[C@@H](CC(C)C)C(=O)N[C@@H](CC(=O)O)C(=O)N[C@@H](C(=O)N1CCC[C@H]1C(=O)N[C@H](C(=O)NCC(=O)N[C@@H](CC(C)C)C(=O)N[C@@H](CCCCNC(=O)COCCOCCNC(=O)COCCOCCNC(=O)CC[C@H](NC(=O)CCCCCCCCCCCCCCCCC(=O)O)C(=O)O)C(=O)N[C@@H](CCC(N)=O)C(=O)N[C@H](C(=O)N[C@@H](CC(C)C)C(=O)N[C@@H](CC(C)C)C(=O)N[C@@H](CCC(=O)O)C(=O)N[C@@H](CCC(N)=O)C(=O)N[C@@H](CCC(=O)O)C(=O)N[C@@H](CCCNC(=N)N)C(=O)N[C@@H](CCC(N)=O)C(=O)N[C@@H](CCCCN)C(=O)NC(C)(C)C(=O)N[C@@H](CCC(N)=O)C(=O)N[C@@H](CCCNC(=N)N)C(=O)N[C@@H](CCC(=O)O)C(=O)N[C@@H](CCC(N)=O)C(=O)N[C@@H](C)C(=O)N[C@@H](CCC(=O)O)C(=O)N[C@@H](CCCCN)C(=O)N[C@@H](CC(N)=O)C(=O)N[C@@H](CCC(=O)O)C(=O)N[C@@H](CCC(N)=O)C(=O)N[C@H](C(=O)N[C@@H](CC(C)C)C(=O)N[C@@H](CCC(=O)O)C(=O)N[C@@H](CCC(N)=O)C(=O)N[C@H](C(N)=O)C(C)C)[C@@H](C)CC)[C@@H](C)CC)[C@@H](C)CC)C(C)C)C(C)C
B4: peptide of SEQ ID NO: 164 (peptide)
peptide: Ac-IVLSLD[dV]PIGLK([AEEA-AEEA-γGlu-C18 diacid])QILLEQERQK[Aib]QREQAEKNKQILEQV-NH2
SMILES: CC[C@H](C)[C@H](NC(C)=O)C(=O)N[C@H](C(=O)N[C@@H](CC(C)C)C(=O)N[C@@H](CO)C(=O)N[C@@H](CC(C)C)C(=O)N[C@@H](CC(=O)O)C(=O)N[C@@H](C(=O)N1CCC[C@H]1C(=O)N[C@H](C(=O)NCC(=O)N[C@@H](CC(C)C)C(=O)N[C@@H](CCCCNC(=O)COCCOCCNC(=O)COCCOCCNC(=O)CC[C@H](NC(=O)CCCCCCCCCCCCCCCCC(=O)O)C(=O)O)C(=O)N[C@@H](CCC(N)=O)C(=O)N[C@H](C(=O)N[C@@H](CC(C)C)C(=O)N[C@@H](CC(C)C)C(=O)N[C@@H](CCC(=O)O)C(=O)N[C@@H](CCC(N)=O)C(=O)N[C@@H](CCC(=O)O)C(=O)N[C@@H](CCCNC(=N)N)C(=O)N[C@@H](CCC(N)=O)C(=O)N[C@@H](CCCCN)C(=O)NC(C)(C)C(=O)N[C@@H](CCC(N)=O)C(=O)N[C@@H](CCCNC(=N)N)C(=O)N[C@@H](CCC(=O)O)C(=O)N[C@@H](CCC(N)=O)C(=O)N[C@@H](C)C(=O)N[C@@H](CCC(=O)O)C(=O)N[C@@H](CCCCN)C(=O)N[C@@H](CC(N)=O)C(=O)N[C@@H](CCCCN)C(=O)N[C@@H](CCC(N)=O)C(=O)N[C@H](C(=O)N[C@@H](CC(C)C)C(=O)N[C@@H](CCC(=O)O)C(=O)N[C@@H](CCC(N)=O)C(=O)N[C@H](C(N)=O)C(C)C)[C@@H](C)CC)[C@@H](C)CC)[C@@H](C)CC)C(C)C)C(C)C
B5: peptide of SEQ ID NO: 146 (peptide)
peptide: FTLSLDVPIKLK([AEEA-AEEA-γGlu-C18 diacid])QILLKQERQKKQRQKAKKNKQILERV-NH2
modifications: N-terminus assumed
SMILES: CC[C@H](C)[C@H](NC(=O)[C@H](CCC(N)=O)NC(=O)[C@H](CCCCNC(=O)COCCOCCNC(=O)COCCOCCNC(=O)CC[C@H](NC(=O)CCCCCCCCCCCCCCCCC(=O)O)C(=O)O)NC(=O)[C@H](CC(C)C)NC(=O)[C@H](CCCCN)NC(=O)[C@@H](NC(=O)[C@@H]1CCCN1C(=O)[C@@H](NC(=O)[C@H](CC(=O)O)NC(=O)[C@H](CC(C)C)NC(=O)[C@H](CO)NC(=O)[C@H](CC(C)C)NC(=O)[C@@H](NC(=O)[C@@H](N)Cc1ccccc1)[C@@H](C)O)C(C)C)[C@@H](C)CC)C(=O)N[C@@H](CC(C)C)C(=O)N[C@@H](CC(C)C)C(=O)N[C@@H](CCCCN)C(=O)N[C@@H](CCC(N)=O)C(=O)N[C@@H](CCC(=O)O)C(=O)N[C@@H](CCCNC(=N)N)C(=O)N[C@@H](CCC(N)=O)C(=O)N[C@@H](CCCCN)C(=O)N[C@@H](CCCCN)C(=O)N[C@@H](CCC(N)=O)C(=O)N[C@@H](CCCNC(=N)N)C(=O)N[C@@H](CCC(N)=O)C(=O)N[C@@H](CCCCN)C(=O)N[C@@H](C)C(=O)N[C@@H](CCCCN)C(=O)N[C@@H](CCCCN)C(=O)N[C@@H](CC(N)=O)C(=O)N[C@@H](CCCCN)C(=O)N[C@@H](CCC(N)=O)C(=O)N[C@H](C(=O)N[C@@H](CC(C)C)C(=O)N[C@@H](CCC(=O)O)C(=O)N[C@@H](CCCNC(=N)N)C(=O)N[C@H](C(N)=O)C(C)C)[C@@H](C)CC

Biological target: rat CRF2R α receptor (rat, UniProt P47866 20-411)
Sequence (P47866 20-411): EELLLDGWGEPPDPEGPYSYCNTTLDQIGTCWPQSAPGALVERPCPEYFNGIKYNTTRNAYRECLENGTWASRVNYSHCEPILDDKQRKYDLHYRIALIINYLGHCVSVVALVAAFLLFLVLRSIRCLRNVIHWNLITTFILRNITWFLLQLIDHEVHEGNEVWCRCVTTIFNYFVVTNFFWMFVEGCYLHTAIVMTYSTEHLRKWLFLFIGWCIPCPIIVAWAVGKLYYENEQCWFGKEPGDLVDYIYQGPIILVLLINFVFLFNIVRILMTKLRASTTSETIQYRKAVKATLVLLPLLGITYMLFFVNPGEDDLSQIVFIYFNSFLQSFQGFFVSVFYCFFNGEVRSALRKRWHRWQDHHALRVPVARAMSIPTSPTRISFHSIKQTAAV
Assay: cell-based or functional assay

EC50 [nM], 0% HSA (cAMP, A7R5 cells) [nM]	Binder
9.99	B1
2.41	B2
76.9	B3
12.6	B4
0.22	B5

Biological target: T1, anti-target CRF1R receptor
Assay: cell-based or functional assay

EC50[nM] 0% HSA (cAMP, CRF1R-overexpression CHO cells) [nM]	Emax (%) (cAMP, CRF1R-overexpression CHO cells)	Binder
> 1000	5.94	B1
> 1000	26.9	B2
> 1000	-0.46	B3
> 1000	25.8	B4
> 1000	1.03	B5
